Experimental findings from patent publication US5639597A, “Cell-free receptor binding assays, the production and use thereof” (Behringwerke Aktiengesellschaft, priority 1990, dated 1997) are described below.

As a reminder, the IC50 is the midpoint of a concentration-inhibition curve. High values mean weaker potency, low ones greater potency.

Assay [1] has as its target T1, TNFRFc (extra-cellular portion of the 80 kD form of the human TNF receptor fused to Fc of human IgG1) (Homo sapiens, UniProt P20333).
T1 construct: made in house
Briefly: Cell-free TNF binding assay, competition of ligands with TNF-alpha-biotin. As to conditions: 200 ng/ml TNFRFc for coating, 20 ng/ml TNF-alpha-biotin, FIG. 8; for effect on binding of TNF-alpha-biotin to TNFRFc: concentrations used. The method, then: (§1) The assay plate was washed five times with PBS containing 0.05% Tween 20 and then incubated with 275 μl of PBS containing 5% skim milk powder at room temperature for 60 min and then washed as above. Then a "checkerboard titration" was initially carried out in order to determine a suitable combination of receptor and ligand concentrations for the design of the assay. […] After washing as above, incubation with 100 μl of streptavidin-peroxidase (Amersham; 1:250 in DMEM/FCS) was carried out at room temperature for 30 min and then washed as above. The bound peroxidase was detected by the color produced in 100 μl of tetramethylbenzidine substrate solution (Behringwerke). After incubation at room temperature for 30 min, the extinction at 450 nm was measured.

The target of assay [2] is T2, GM-CSFRFc (extracellular domain of the human GM-CSF receptor fused to Fc of human IgG1) (Homo sapiens, UniProt P15509).
T2 construct: made in house; host or cells: COS cells (transient; supernatants used)
Briefly: Cell-free GM-CSF binding assay, competition of ligands with GM-CSF-biotin. As to conditions: 1000 ng/ml GM-CSFRFc for coating, 150 ng/ml GM-CSF-biotin, concentrations used; FIG. 14. The method, then:
as §1, with “ELISA plates (Nunc, type B) were coated overnight at 4° C. with 100 μl of an affinity-purified rabbit serum against the CH2 domain of human IgG (Dakopatts). The concentration was 10 μg/ml in PBS (137 mM NaCl, 2.7 mM KCl, 6.1 mM Na2 HPO4, 3.9 mM KH2 PO4, 0.5 mM MgCl2, 0.1 mM CaCl2, pH 7.0). The assay” for “The assay”
Transient expression of pGM-CSFRFc in COS cells was carried out. To do this, COS cells were transfected with pGM-CSFRFc with the aid of DEAE-dextran (EP-A 0325 262).

Assay [3] addresses TNFRFc (human). Kind of assay: competition with TNF-alpha-biotin (20 ng/ml) for plate-bound TNFRFc (200 ng/ml for coating), ELISA format.
In assay [4] the target is TNF-alpha-biotin. Briefly: soluble TNFRFc competing with plate-bound TNFRFc for TNF-alpha-biotin, ELISA format. For orientation: In an ELISA, binding on a coated surface is turned into a signal by an enzyme label.
Assay [5] concerns the target T3, IL-4RFc (extracellular portion of the human receptor for IL-4 fused to Fc of human IgG1) (Homo sapiens, UniProt P24394).
T3 construct: It is composed of the extracellular portion of the human receptor for IL-4
Kind of assay: Cell-free IL-4 binding assay, competition of ligands with IL-4-biotin. The following applies: 300 ng/ml IL-4-biotin, various concentrations of competitor; FIG. 3. The method, then: as §1, with “ELISA plates (Nunc, type B) were coated overnight at 4° C. with 100 μl of an affinity-purified rabbit serum against the CH2 domain of human IgG (Dakopatts). The concentration was 10 μg/ml in PBS (137 mM NaCl, 2.7 mM KCl, 6.1 mM Na2 HPO4, 3.9 mM KH2 PO4, 0.5 mM MgCl2, 0.1 mM CaCl2, pH 7.0). The assay” for “The assay”

In assay [6] the target is T4, IL-4-biotin (Homo sapiens, UniProt P05112).
T4 sequence (P05112 25-153): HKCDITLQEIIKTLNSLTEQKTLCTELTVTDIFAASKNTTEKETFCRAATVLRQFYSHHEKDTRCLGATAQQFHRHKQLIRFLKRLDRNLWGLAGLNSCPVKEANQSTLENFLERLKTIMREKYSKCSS
Kind of assay: Detection of soluble IL-4 receptor in the cell-free binding assay (competition for IL-4-biotin). The following applies: plate coated with 300 ng/ml IL-4RFc; FIG. 4. The protocol: as §1, with “ELISA plates (Nunc, type B) were coated overnight at 4° C. with 100 μl of an affinity-purified rabbit serum against the CH2 domain of human IgG (Dakopatts). The concentration was 10 μg/ml in PBS (137 mM NaCl, 2.7 mM KCl, 6.1 mM Na2 HPO4, 3.9 mM KH2 PO4, 0.5 mM MgCl2, 0.1 mM CaCl2, pH 7.0). The assay” for “The assay”

Turning to “IL-4: interleukin 4, unlabelled ligand used for competition”, in assay [1], the “effect on binding of TNF-alpha-biotin to TNFRFc” value (“effect on binding” below) was “no effect”. Further, in assay [2], the “inhibition of binding of GM-CSF-biotin to GM-CSFRFc” value (“inhibition … to GM-CSFRFc” for short) is listed as “do not inhibit”.

In turn, TNF-alpha (ligand) registered a 50% inhibitory concentration (IC50) in assay [3] of 5 ng/mL.

As to TNF-alpha, in assay [1], the “inhibition of binding of TNF-alpha-biotin, IC50” value is 5 ng/mL. Besides, the “inhibition … to GM-CSFRFc” value in assay [2] is recorded as “do not inhibit”. On to TNFRFc (Fc fusion), for which the IC50 in assay [4] amounted to 35 ng/mL.

As to “IL-1-alpha: interleukin ligand used for competition (specificity control)”, the “competition with IL-4-biotin for binding to IL-4RFc” value in assay [5] was “no binding activity”. In addition, the “effect on binding” value in assay [1] was “no effect”. Further, the “inhibition … to GM-CSFRFc” value in assay [2] is “do not inhibit”. “GM-CSF: granulocyte/macrophage colony-stimulating factor, unlabelled ligand”: in assay [1], the “effect on binding” value was “no effect”.

B1: G-CSF: ligand used for competition (specificity control) (protein, UniProt P09919 31-207, looked up)
Granulocyte …: TPLGPASSLPQSFLLKCLEQVRKIQGDGAALQEKLVSECATYKLCHPEELVLLGHSLGIPWAPLSSCPSQALQLAGCLSQLHSGLFLYQGLLQALEGISPELGPTLDTLQLDVADFATTIWQQMEELGMAPALQPTQGAMPAFASAFQRRAGGVLVASHLQSFLEVSYRVLRHLAQP
As for B1, the “inhibition … to GM-CSFRFc” value in assay [2] was “do not inhibit”.

B2: IL-7RFc: an Fc fusion of the human IL-7 receptor (protein)
chain: ESGYAQNGDLEDAELDDYSFSCYSQLEVNGSQHSLTCAFEDPDVNITNLEFEICGALVEVKCLNFRKLQEIYFIETKKFLLIGKSNICVKVGEKSLTCKKIDLTTIVKPEAPFDLSVVYREGANDFVVTFNTSHLQKKYVKVLMHDVAYRQEKDENKWTHVNLSSTKLTLLQRKLQPAAMYEIKVRSIPDHYFKGFWSEWSPSYYFRTPEINNSSGEMD
B2: in assay [6], the “binding activity of soluble receptor/Fc fusion protein in IL-4-biotin competition assay” value was “no binding activity”.
